Results on one molecule are retold here after patent US20040002457A1, “Inhibition of virus anchorage by RGG domain of a cell surface-expressed protein, polynucleotide coding for said RGG domain, therapeutic uses thereof by inhibition of microorganism or protein ligand binding to the cell-surface-expressed protein” (priority 2002, published 2004).

No end group written: not given here.

The target in assay [1] is T1, cell-surface-expressed hamster nucleolin (on CHO K1, CHO 677 and CHO 618 cells) (Chinese hamster), A0A8C2.
T1 chain: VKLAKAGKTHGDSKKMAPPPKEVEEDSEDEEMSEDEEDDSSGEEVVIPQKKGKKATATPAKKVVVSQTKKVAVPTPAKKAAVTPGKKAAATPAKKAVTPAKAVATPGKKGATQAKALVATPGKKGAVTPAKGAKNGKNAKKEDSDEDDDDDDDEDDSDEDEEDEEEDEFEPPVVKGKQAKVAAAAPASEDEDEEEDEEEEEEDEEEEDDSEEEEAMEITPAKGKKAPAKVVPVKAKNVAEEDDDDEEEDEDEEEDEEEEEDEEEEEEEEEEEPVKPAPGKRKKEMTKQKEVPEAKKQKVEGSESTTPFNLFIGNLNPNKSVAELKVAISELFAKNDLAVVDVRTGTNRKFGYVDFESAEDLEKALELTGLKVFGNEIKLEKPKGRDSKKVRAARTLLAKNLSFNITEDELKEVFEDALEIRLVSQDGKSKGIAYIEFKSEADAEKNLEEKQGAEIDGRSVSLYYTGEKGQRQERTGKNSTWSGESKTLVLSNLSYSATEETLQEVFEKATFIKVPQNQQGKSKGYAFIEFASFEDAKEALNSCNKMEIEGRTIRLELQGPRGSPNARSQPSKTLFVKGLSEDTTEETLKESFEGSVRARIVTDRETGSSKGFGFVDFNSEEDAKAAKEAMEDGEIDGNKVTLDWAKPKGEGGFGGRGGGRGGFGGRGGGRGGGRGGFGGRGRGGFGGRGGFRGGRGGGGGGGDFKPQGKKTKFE
As to the kind of experiment: biotinylated HB-19A on wild type CHO K1 cells, streptavidin-HRP.

Assay [2] deals with cell-surface-expressed human nucleolin (on HeLa P4 and MT4 cells) (human), P19338. The assay is described as follows: 125I-labeled HB-19A on HeLa P4 cell monolayers, wash at 300 mM NaCl.
Assay [3] concerns the target GST-R1234G, GST fusion of the C-terminal part of human nucleolin (RBDs I-IV and RGG domain) (human) (UniProt P19338). As to the kind of experiment: dose series 0-10 µM biotinylated HB-19A, avidin-agarose pull-down, anti-GST immunoblot. Background: A western blot detects proteins with antibodies after separation by electrophoresis.
The target in assay [4] is GST-R234G, GST fusion of human nucleolin RBDs II, III, IV and the RGG domain (human) (UniProt P19338). The description is as above.
Assay [5] deals with GST-G, GST fusion of the RGG domain of human nucleolin alone (human), P19338. Described as above.
Chain of GST-G, GST fusion of the RGG domain of human nucleolin alone (human), P19338 (P19338 648-710): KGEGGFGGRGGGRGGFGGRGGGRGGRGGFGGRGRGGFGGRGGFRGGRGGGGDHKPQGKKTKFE

Chain of GST-R234G, GST fusion of human nucleolin RBDs II, III, IV and the RGG domain (human) (P19338 389-710, stated change not applied): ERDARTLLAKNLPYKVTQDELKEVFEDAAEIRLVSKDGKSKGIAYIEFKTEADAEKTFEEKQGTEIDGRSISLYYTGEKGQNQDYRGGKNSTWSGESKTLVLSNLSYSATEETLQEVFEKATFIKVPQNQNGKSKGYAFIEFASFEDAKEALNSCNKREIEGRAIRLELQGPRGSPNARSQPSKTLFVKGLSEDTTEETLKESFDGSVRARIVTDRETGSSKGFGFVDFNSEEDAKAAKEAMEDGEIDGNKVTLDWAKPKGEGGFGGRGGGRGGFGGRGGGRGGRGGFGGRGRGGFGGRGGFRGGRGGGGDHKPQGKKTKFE
Chain of cell-surface-expressed human nucleolin (on HeLa P4 and MT4 cells) (human), P19338 (P19338 2-710): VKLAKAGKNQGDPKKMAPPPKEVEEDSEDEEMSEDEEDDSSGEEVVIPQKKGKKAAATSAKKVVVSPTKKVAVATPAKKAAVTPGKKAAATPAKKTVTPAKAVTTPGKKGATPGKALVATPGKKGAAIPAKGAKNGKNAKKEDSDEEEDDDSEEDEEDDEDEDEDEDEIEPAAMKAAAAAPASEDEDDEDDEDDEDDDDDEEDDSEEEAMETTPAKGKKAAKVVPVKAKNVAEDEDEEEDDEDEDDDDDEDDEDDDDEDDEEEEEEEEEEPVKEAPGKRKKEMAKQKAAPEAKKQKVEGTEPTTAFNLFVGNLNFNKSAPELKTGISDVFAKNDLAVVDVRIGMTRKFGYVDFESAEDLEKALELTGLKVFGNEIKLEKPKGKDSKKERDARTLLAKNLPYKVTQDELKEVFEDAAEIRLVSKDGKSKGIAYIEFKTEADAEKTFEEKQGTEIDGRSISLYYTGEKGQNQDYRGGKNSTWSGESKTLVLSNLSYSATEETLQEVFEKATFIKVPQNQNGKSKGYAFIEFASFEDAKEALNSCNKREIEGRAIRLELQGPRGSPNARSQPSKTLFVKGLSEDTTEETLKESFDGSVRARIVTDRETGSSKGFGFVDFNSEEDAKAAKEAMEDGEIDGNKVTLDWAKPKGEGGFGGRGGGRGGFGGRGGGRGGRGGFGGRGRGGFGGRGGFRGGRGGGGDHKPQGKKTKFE
Chain of GST-R1234G, GST fusion of the C-terminal part of human nucleolin (RBDs I-IV and RGG domain) (human) (P19338 308-707, stated change not applied): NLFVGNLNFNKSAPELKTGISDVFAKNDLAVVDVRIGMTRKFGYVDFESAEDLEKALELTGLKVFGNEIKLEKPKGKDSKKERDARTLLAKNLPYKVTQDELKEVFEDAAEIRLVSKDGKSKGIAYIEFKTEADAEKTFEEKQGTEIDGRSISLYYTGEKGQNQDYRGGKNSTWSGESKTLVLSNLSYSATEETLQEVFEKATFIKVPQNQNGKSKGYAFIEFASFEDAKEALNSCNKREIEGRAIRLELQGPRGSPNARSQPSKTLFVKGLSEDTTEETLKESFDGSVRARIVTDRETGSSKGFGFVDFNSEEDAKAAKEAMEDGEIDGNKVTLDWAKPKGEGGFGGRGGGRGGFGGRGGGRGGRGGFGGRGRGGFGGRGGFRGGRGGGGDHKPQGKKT

B1: HB-19A, pseudopeptide 5[K-Psi(CH2N)-PR]-TASP with a modified TASP template (peptide)
peptide: Lys-Pro-Arg
chain: KKKKA
modifications: also: reduced amide bond Psi(CH2N) between Lys and Pro in each KPR, five KPR copies on the KKKKA template: alpha-NH2 of the four template Lys and epsilon-NH2 of the N-terminal Lys, template Lys linked through their epsilon-NH2 groups
As to B1, in assay [1], the HB-19A concentration at saturation of binding came out at 1 µM. This molecule returned an HB-19A concentration at saturation of specific binding in assay [2] of 1 µM. The HB-19A concentration at maximum binding in assay [3], in assay [4] and in assay [5] was 5 µM throughout.
